Results on eight molecules are retold here after paper PMC2865030 (Biochemical Journal, 2008).

First the molecules themselves.
B5: Tah1 (TPR-containing protein associated with Hsp90) (natural protein)
chain: MSQFEKQKEQGNSLFKQGLYREAVHCYDQLITAQPQNPVGYSNKAMALIKLGEYTQAIQMCQQGLRYTSTAEHVAIRSKLQYRLELAQGAVGSVQIPVVEVDELPEGYDRS

Assay in all cases: ITC
For assay [1], the target named is B5.
The target of assay [2] is yeast Ssa1 (Hsp70, His-tagged) (yeast, UniProt P10591 1-642).
Assay [3] concerns the target human Hsp90β (His-tagged) (human, UniProt P08238 1-724).
In a further assay the target is human Hsp90α (human, UniProt P07900 1-732).

Chain of human Hsp90β (His-tagged) (P08238 whole entry): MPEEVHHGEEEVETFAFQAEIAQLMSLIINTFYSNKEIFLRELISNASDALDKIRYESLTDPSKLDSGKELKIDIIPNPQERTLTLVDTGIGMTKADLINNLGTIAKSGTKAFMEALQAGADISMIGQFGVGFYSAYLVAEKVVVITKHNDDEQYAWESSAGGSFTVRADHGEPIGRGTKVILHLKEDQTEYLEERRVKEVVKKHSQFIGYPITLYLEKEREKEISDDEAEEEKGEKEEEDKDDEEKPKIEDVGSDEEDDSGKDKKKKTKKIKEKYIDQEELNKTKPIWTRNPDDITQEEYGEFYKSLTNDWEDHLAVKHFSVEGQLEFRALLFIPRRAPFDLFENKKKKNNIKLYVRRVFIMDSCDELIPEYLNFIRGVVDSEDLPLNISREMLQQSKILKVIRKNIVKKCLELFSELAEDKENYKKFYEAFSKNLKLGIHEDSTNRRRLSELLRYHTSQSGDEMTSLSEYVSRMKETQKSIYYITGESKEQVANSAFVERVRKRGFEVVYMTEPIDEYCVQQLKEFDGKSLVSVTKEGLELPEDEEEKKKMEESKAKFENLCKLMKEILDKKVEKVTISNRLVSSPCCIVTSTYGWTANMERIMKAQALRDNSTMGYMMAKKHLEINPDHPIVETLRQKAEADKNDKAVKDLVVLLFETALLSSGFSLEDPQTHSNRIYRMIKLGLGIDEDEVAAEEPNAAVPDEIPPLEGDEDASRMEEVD
Chain of yeast Ssa1 (Hsp70, His-tagged) (P10591 whole entry): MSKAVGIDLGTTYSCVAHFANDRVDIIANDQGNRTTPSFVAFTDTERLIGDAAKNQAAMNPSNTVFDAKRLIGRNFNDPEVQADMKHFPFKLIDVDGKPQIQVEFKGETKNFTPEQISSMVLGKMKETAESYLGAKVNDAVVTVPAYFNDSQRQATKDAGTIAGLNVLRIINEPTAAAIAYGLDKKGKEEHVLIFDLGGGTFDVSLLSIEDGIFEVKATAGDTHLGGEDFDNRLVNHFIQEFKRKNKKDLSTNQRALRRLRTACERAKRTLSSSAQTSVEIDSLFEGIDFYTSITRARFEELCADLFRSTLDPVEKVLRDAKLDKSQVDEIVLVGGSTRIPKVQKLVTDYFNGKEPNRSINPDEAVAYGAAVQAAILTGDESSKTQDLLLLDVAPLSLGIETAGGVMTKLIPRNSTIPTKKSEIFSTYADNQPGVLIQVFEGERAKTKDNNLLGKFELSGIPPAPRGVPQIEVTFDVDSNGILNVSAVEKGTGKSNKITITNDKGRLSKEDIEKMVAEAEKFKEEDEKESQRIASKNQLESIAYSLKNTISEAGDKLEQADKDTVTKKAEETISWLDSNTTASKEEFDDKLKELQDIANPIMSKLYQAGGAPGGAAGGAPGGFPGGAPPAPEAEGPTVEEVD

B1: PTVEEVD heptapeptide (C-terminal end of Ssa1) (peptide)
peptide: PTVEEVD
By Kd is commonly meant the constant that tells how readily two partners part at equilibrium. Lower therefore signals a tighter complex. As a reminder, the stoichiometry N is a count of units in the complex or per binding partner. On to B1, for which, in assay [1], binding was characterised by a dissociation constant (Kd) of 10600 ± 1400 nM and the “stoichiometry N” value was 1.

B2: AEGPTVEEVD decapeptide (C-terminal end of Ssa1, wild-type sequence) (peptide)
peptide: AEGPTVEEVD
As for B2, in assay [1], the affinity, expressed as Kd, was 28900 ± 3100 nM and the “stoichiometry N” value was 1.2.

B3: MEEVD pentapeptide (C-terminal end of yeast Hsp90) (peptide)
peptide: MEEVD
As for B3, in assay [1], the “stoichiometry N” value amounted to 1.1.

B4: VEEVD pentapeptide (C-terminal end of Ssa1) (peptide)
peptide: VEEVD
In assay [1], B4 returned a Kd of 48800 ± 5500 nM.

Regarding B5, the Kd in assay [2] was 16000 ± 2500 nM; in assay [3], 340 ± 70 nM; with human Hsp90α, 330 ± 30 nM. In addition, the “stoichiometry N” value in assay [3] was 0.84; with human Hsp90α, 1.1.

B6: EDASRMEEVD decapeptide (C-terminal end of human Hsp90β) (peptide)
peptide: EDASRMEEVD
B6: in assay [1], the Kd came to 1000 ± 190 nM and the “stoichiometry N” value amounted to 0.81.

B7: TEMEEVD heptapeptide (C-terminal end of yeast Hsp90) (peptide)
peptide: TEMEEVD
Consider B7, for which, in assay [1], the Kd came to 950 ± 40 nM and the “stoichiometry N” value came to 1.2.

B8: DDTSRMEEVD decapeptide (C-terminal end of human Hsp90α) (peptide)
peptide: DDTSRMEEVD
As for B8, in assay [1], binding was put at a Kd of 900 ± 60 nM and the “stoichiometry N” value worked out at 1.1.
